According to patent US20260240959A1, “METHODS FOR IN VIVO EDITING OF KLKB1” (INTELLIA THERAPEUTICS, INC., priority 2022, published 2026):
In the oligonucleotide strings, read from the 5' end, every base follows the letter of its sugar. An asterisk marks phosphorothioate; unmarked linkages are phosphodiester. Other units and linkages are bracketed, terminal groups are in braces. A string of capitals states the bases alone. m = 2'-O-methyl; r = 2'-OH (RNA)

Tested on: plasma kallikrein
Experiment: Plasma kallikrein activity in cynomolgus monkeys
Type: in vivo, cynomolgus monkey
Conditions: for Kallikrein Activity (% of basal activity), Mean: n=3
Procedure: Cynomolgus monkeys were treated in cohorts of n=3. This study was conducted with LNP formulations according to Example 1. […]. Animals were dosed at 1.5, 3, or 6 mg per kg doses based on total RNA cargo. Indel formation (percent editing) was measured by NGS. Total kallikrein activity and plasma kallikrein protein level were measured as described above. […]

B1: G013901: cynomolgus specific KLKB1 guide RNA (SEQ ID NO: 409); dosed as LNP formulation with Cas9 mRNA (nucleic acid)
guide: mG*mG*mA*rUrUrArCrArUrArUrGrGrGrArCrArCrArArGrUrUrUrUrArGrAmGmCmUmAmGmAmAmAmUmAmGmCrArArGrUrUrArArArArUrArArGrGrCrUrArGrUrCrCrGrUrUrArUrCrAmAmCmUmUmGmAmAmAmAmAmGmUmGmGmCmAmCmCmGmAmGmUmCmGmGmUmGmCmU*mU*mU*mU
Cynomolgus monkey, in vivo
  durability of response in NHPs: durable through one year
1.5 mpk, Day 7
  Kallikrein Activity (% of basal activity), Mean: 67.8 % of basal activity
1.5 mpk, Day 14
  Kallikrein Activity (% of basal activity), Mean: 31.1 % of basal activity
1.5 mpk, Day 28
  Kallikrein Activity (% of basal activity), Mean: 26.8 % of basal activity
1.5 mpk, Day 42
  Kallikrein Activity (% of basal activity), Mean: 19.8 % of basal activity
1.5 mpk, Day 56
  Kallikrein Activity (% of basal activity), Mean: 8.8 % of basal activity
1.5 mpk, Day 70
  Kallikrein Activity (% of basal activity), Mean: 6 % of basal activity
1.5 mpk, Day 84
  Kallikrein Activity (% of basal activity), Mean: 10.6 % of basal activity
1.5 mpk, Day 105
  Kallikrein Activity (% of basal activity), Mean: 23.3 % of basal activity
1.5 mpk, Day 119
  Kallikrein Activity (% of basal activity), Mean: 12.2 % of basal activity
1.5 mpk, Day 147
  Kallikrein Activity (% of basal activity), Mean: 11.9 % of basal activity
1.5 mpk, Day 161
  Kallikrein Activity (% of basal activity), Mean: 21 % of basal activity
1.5 mpk, Day 180
  Kallikrein Activity (% of basal activity), Mean: 19.2 % of basal activity
1.5 mpk, Day 238
  Kallikrein Activity (% of basal activity), Mean: 16.6 % of basal activity
1.5 mpk, Day 252
  Kallikrein Activity (% of basal activity), Mean: 19.1 % of basal activity
1.5 mpk, Day 266
  Kallikrein Activity (% of basal activity), Mean: 13.9 % of basal activity
1.5 mpk, Day 280
  Kallikrein Activity (% of basal activity), Mean: 17.5 % of basal activity
1.5 mpk, Day 294
  Kallikrein Activity (% of basal activity), Mean: 17 % of basal activity
1.5 mpk, Day 308
  Kallikrein Activity (% of basal activity), Mean: 18.2 % of basal activity
1.5 mpk, Day 326
  Kallikrein Activity (% of basal activity), Mean: 13.3 % of basal activity
1.5 mpk, Day 333
  Kallikrein Activity (% of basal activity), Mean: 15.9 % of basal activity
1.5 mpk, Day 347
  Kallikrein Activity (% of basal activity), Mean: 16.9 % of basal activity
1.5 mpk, Day 365
  Kallikrein Activity (% of basal activity), Mean: 24.1 % of basal activity
3 mpk, Day 7
  Kallikrein Activity (% of basal activity), Mean: 42.8 % of basal activity
3 mpk, Day 14
  Kallikrein Activity (% of basal activity), Mean: 15.9 % of basal activity
3 mpk, Day 28
  Kallikrein Activity (% of basal activity), Mean: 10.6 % of basal activity
3 mpk, Day 42
  Kallikrein Activity (% of basal activity), Mean: 8.6 % of basal activity
3 mpk, Day 56
  Kallikrein Activity (% of basal activity), Mean: 3.4 % of basal activity
3 mpk, Day 70
  Kallikrein Activity (% of basal activity), Mean: 3 % of basal activity
3 mpk, Day 84
  Kallikrein Activity (% of basal activity), Mean: 4.2 % of basal activity
3 mpk, Day 105
  Kallikrein Activity (% of basal activity), Mean: 6 % of basal activity
3 mpk, Day 119
  Kallikrein Activity (% of basal activity), Mean: 3.4 % of basal activity
3 mpk, Day 147
  Kallikrein Activity (% of basal activity), Mean: 4.5 % of basal activity
3 mpk, Day 161
  Kallikrein Activity (% of basal activity), Mean: 6 % of basal activity
3 mpk, Day 180
  Kallikrein Activity (% of basal activity), Mean: 4.7 % of basal activity
3 mpk, Day 238
  Kallikrein Activity (% of basal activity), Mean: 4.7 % of basal activity
3 mpk, Day 252
  Kallikrein Activity (% of basal activity), Mean: 8.2 % of basal activity
3 mpk, Day 266
  Kallikrein Activity (% of basal activity), Mean: 8.9 % of basal activity
3 mpk, Day 280
  Kallikrein Activity (% of basal activity), Mean: 6.8 % of basal activity
3 mpk, Day 294
  Kallikrein Activity (% of basal activity), Mean: 7.9 % of basal activity
3 mpk, Day 308
  Kallikrein Activity (% of basal activity), Mean: 7.4 % of basal activity
3 mpk, Day 326
  Kallikrein Activity (% of basal activity), Mean: 5.5 % of basal activity
3 mpk, Day 333
  Kallikrein Activity (% of basal activity), Mean: 6.8 % of basal activity
3 mpk, Day 347
  Kallikrein Activity (% of basal activity), Mean: 4.1 % of basal activity
3 mpk, Day 365
  Kallikrein Activity (% of basal activity), Mean: 10 % of basal activity
6 mpk, Day 7
  Kallikrein Activity (% of basal activity), Mean: 18.2 % of basal activity
6 mpk, Day 14
  Kallikrein Activity (% of basal activity), Mean: 5.3 % of basal activity
6 mpk, Day 28
  Kallikrein Activity (% of basal activity), Mean: 3.9 % of basal activity
6 mpk, Day 42
  Kallikrein Activity (% of basal activity), Mean: 3.6 % of basal activity
6 mpk, Day 56
  Kallikrein Activity (% of basal activity), Mean: 4.2 % of basal activity
6 mpk, Day 70
  Kallikrein Activity (% of basal activity), Mean: 3.9 % of basal activity
6 mpk, Day 84
  Kallikrein Activity (% of basal activity), Mean: 4.7 % of basal activity
6 mpk, Day 105
  Kallikrein Activity (% of basal activity), Mean: 4.7 % of basal activity
6 mpk, Day 119
  Kallikrein Activity (% of basal activity), Mean: 3 % of basal activity
6 mpk, Day 147
  Kallikrein Activity (% of basal activity), Mean: 3 % of basal activity
6 mpk, Day 161
  Kallikrein Activity (% of basal activity), Mean: 5.6 % of basal activity
6 mpk, Day 180
  Kallikrein Activity (% of basal activity), Mean: 5 % of basal activity
6 mpk, Day 238
  Kallikrein Activity (% of basal activity), Mean: 3.2 % of basal activity
6 mpk, Day 252
  Kallikrein Activity (% of basal activity), Mean: 3.1 % of basal activity
6 mpk, Day 266
  Kallikrein Activity (% of basal activity), Mean: 2.7 % of basal activity
6 mpk, Day 280
  Kallikrein Activity (% of basal activity), Mean: 3 % of basal activity
6 mpk, Day 294
  Kallikrein Activity (% of basal activity), Mean: 2.9 % of basal activity
6 mpk, Day 308
  Kallikrein Activity (% of basal activity), Mean: 3 % of basal activity
6 mpk, Day 326
  Kallikrein Activity (% of basal activity), Mean: 3.5 % of basal activity
6 mpk, Day 333
  Kallikrein Activity (% of basal activity), Mean: 3.3 % of basal activity
